Data on 1 molecule can be found in patent publication US20150337051A1 (MORPHOTEK, published 2015).

Experiment [1] concerns the target T1, recombinant CHO TEM-1 Fc fusion protein (UniProt Q9HCU0).
T1 sequence (looked up): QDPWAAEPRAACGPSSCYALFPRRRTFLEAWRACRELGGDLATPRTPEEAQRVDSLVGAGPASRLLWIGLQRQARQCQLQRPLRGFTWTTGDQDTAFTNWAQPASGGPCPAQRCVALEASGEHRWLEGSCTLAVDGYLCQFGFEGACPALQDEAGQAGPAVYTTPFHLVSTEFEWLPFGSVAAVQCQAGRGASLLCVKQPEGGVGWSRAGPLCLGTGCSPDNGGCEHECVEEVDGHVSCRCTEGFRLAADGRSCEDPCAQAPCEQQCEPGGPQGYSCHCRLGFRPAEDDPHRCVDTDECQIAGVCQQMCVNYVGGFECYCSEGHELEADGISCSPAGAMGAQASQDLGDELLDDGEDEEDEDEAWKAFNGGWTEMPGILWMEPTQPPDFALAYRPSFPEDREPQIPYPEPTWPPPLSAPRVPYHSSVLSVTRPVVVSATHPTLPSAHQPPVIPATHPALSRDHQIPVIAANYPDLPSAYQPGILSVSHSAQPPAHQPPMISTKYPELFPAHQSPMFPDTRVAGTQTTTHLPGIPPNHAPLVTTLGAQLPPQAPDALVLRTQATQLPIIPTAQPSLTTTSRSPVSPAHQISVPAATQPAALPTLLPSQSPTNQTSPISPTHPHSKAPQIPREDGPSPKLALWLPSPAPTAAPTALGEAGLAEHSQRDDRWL
The experiment can be described thus: ECL sandwich, competition: biotin-9G5 capture, sulfo-TAG-15F8 detection; MORAb-004 spike 1.5625 µg/mL, TEM-1-Fc QC 0.4 ng/mL; recovery at 0 µg/mL MORAb-004: 109.

Experiment [2] concerns the target T1, recombinant CHO TEM-1 Fc fusion protein. The experiment can be described thus: ECL sandwich, competition: biotin-9G5 capture, sulfo-TAG-15F8 detection; MORAb-004 spike 3.125 µg/mL, TEM-1-Fc QC 0.4 ng/mL; recovery at 0 µg/mL MORAb-004: 109.
Experiment [3] has the same target. The experiment can be described thus: ECL sandwich, competition: biotin-9G5 capture, sulfo-TAG-15F8 detection; MORAb-004 spike 50 µg/mL, TEM-1-Fc QC 0.4 ng/mL; recovery at 0 µg/mL MORAb-004: 109.
The target is the same in experiment [4]. The experiment can be described thus: ECL sandwich, competition: biotin-9G5 capture, sulfo-TAG-15F8 detection; MORAb-004 spike 3.125 µg/mL, TEM-1-Fc QC 50 ng/mL; recovery at 0 µg/mL MORAb-004: 104.
For experiment [5] the target is unchanged. The experiment can be described thus: ECL sandwich, competition: biotin-9G5 capture, sulfo-TAG-15F8 detection; MORAb-004 spike 25 µg/mL, TEM-1-Fc QC 0.08 ng/mL; recovery at 0 µg/mL MORAb-004: 114.
Experiment [6] shares this target. The experiment can be described thus: ECL sandwich, competition: biotin-9G5 capture, sulfo-TAG-15F8 detection; MORAb-004 spike 6.25 µg/mL, TEM-1-Fc QC 0.08 ng/mL; recovery at 0 µg/mL MORAb-004: 114.
The target is the same in experiment [7]. The experiment can be described thus: ECL sandwich, competition: biotin-9G5 capture, sulfo-TAG-15F8 detection; MORAb-004 spike 1.5625 µg/mL, TEM-1-Fc QC 50 ng/mL; recovery at 0 µg/mL MORAb-004: 104.
Experiment [8] has the same target. The experiment can be described thus: ECL sandwich, competition: biotin-9G5 capture, sulfo-TAG-15F8 detection; MORAb-004 spike 50 µg/mL, TEM-1-Fc QC 2 ng/mL; recovery at 0 µg/mL MORAb-004: 106.
Experiment [9] shares this target. The experiment can be described thus: ECL sandwich, competition: biotin-9G5 capture, sulfo-TAG-15F8 detection; MORAb-004 spike 6.25 µg/mL, TEM-1-Fc QC 2 ng/mL; recovery at 0 µg/mL MORAb-004: 106.
Experiment [10] has the same target. The experiment can be described thus: ECL sandwich, competition: biotin-9G5 capture, sulfo-TAG-15F8 detection; MORAb-004 spike 50 µg/mL, TEM-1-Fc QC 0.08 ng/mL; recovery at 0 µg/mL MORAb-004: 114.
Experiment [11] has the same target. The experiment can be described thus: ECL sandwich, competition: biotin-9G5 capture, sulfo-TAG-15F8 detection; MORAb-004 spike 25 µg/mL, TEM-1-Fc QC 50 ng/mL; recovery at 0 µg/mL MORAb-004: 104.
The target is the same in experiment [12]. The experiment can be described thus: ECL sandwich, competition: biotin-9G5 capture, sulfo-TAG-15F8 detection; MORAb-004 spike 12.5 µg/mL, TEM-1-Fc QC 0.4 ng/mL; recovery at 0 µg/mL MORAb-004: 109.
The target is the same in experiment [13]. The experiment can be described thus: ECL sandwich, competition: biotin-9G5 capture, sulfo-TAG-15F8 detection; MORAb-004 spike 25 µg/mL, TEM-1-Fc QC 0.4 ng/mL; recovery at 0 µg/mL MORAb-004: 109.
The target is the same in experiment [14]. The experiment can be described thus: ECL sandwich, competition: biotin-9G5 capture, sulfo-TAG-15F8 detection; MORAb-004 spike 12.5 µg/mL, TEM-1-Fc QC 2 ng/mL; recovery at 0 µg/mL MORAb-004: 106.
Experiment [15] shares this target. The experiment can be described thus: ECL sandwich, competition: biotin-9G5 capture, sulfo-TAG-15F8 detection; MORAb-004 spike 0.78125 µg/mL, TEM-1-Fc QC 2 ng/mL; recovery at 0 µg/mL MORAb-004: 106.
For experiment [16] the target is unchanged. The experiment can be described thus: ECL sandwich, competition: biotin-9G5 capture, sulfo-TAG-15F8 detection; MORAb-004 spike 25 µg/mL, TEM-1-Fc QC 2 ng/mL; recovery at 0 µg/mL MORAb-004: 106.

B1: MORAb-004 (antibody, INN chains, looked up, V domains shown)
VH: QVQLQESGPGLVRPSQTLSLTCTASGYTFTDYVIHWVKQPPGRGLEWIGYINPYDDDTTYNQKFKGRVTMLVDTSSNTAYLRLSSVTAEDTAVYYCARRGNSYDGYFDYSMDYWGSGTPVTVSS
VL: DIQMTQSPSSLSASVGDRVTITCRASQNVGTAVAWLQQTPGKAPKLLIYSASNRYTGVPSRFSGSGSGTDYTFTISSLQPEDIATYYCQQYTNYPMYTFGQGTKVQIK
For B1, the % Recovery of TEM-1 QCs spiked with MORAb-004 in [1] was found to be 102%; in experiment [2], 101%; in experiment [3], 91.9%; in experiment [4], 94.5%; in experiment [5], 96%; in experiment [6], 101%. Besides, the % Recovery of TEM-1 QCs spiked with MORAb-004 was 98.9% in experiment [7]; 89.9% in experiment [8]; 94.2% in experiment [9]; 94.1% in experiment [10]; 92.8% in [11]; 96.5% in experiment [12]. Further, the % Recovery of TEM-1 QCs spiked with MORAb-004 in experiment [13] is 96.5%; in [14], 92.8%; in experiment [15], 99.9%; in experiment [16] it was 89.1%.
